Results as given in patent publication US20140274782A1, “AFFINITY REAGENTS AND METHODS FOR DETECTION, PURIFICATION, AND PROTEOMIC ANALYSIS OF METHYLATED PROTEINS” (The Board of Trustees of the Leland Stanford Junior …, priority 2013, published 2014).
Values belong to the molecule of their own block, whether it stands above or below them.

Key:
G9a and GLP = target: T1, G9a and GLP (Homo sapiens, UniProt Q96KQ7+Q9H9B1); assay: Triple SILAC pull-down after UNC0638 treatment of 293T cells, DMSO/UNC0638 ratio of protein captured by 3×MBT; assay type: cell-based; design: cells were treated for 24 hours with UNC0638 at 2.5 μM or DMSO vehicle control; endogenous in cells; host or cells: HEK 293T; settings: for Relative to UNC0638 UNC Heavy / Relative to UNC0638 UNC Light: SILAC ratio DMSO/UNC0638 of protein pulled down with 3xMBT; for Relative to UNC0638 UNC Heavy: UNC0638 in heavy SILAC media; for Relative to UNC0638 UNC Light: UNC0638 in light SILAC media; for Relative to UNC0638 Average: average of UNC Light and UNC Heavy experiments;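 for all read-outs here: mass spectrometry (Q-Exactive) SILAC quantitation, DMSO/UNC0638 ratio computed after subtracting 3×MBTD355N mutant pull-down background, only proteins with at least twofold 3×MBT over mutant signal considered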
T1 sequence (Q96KQ7 2-1210 limits assumed): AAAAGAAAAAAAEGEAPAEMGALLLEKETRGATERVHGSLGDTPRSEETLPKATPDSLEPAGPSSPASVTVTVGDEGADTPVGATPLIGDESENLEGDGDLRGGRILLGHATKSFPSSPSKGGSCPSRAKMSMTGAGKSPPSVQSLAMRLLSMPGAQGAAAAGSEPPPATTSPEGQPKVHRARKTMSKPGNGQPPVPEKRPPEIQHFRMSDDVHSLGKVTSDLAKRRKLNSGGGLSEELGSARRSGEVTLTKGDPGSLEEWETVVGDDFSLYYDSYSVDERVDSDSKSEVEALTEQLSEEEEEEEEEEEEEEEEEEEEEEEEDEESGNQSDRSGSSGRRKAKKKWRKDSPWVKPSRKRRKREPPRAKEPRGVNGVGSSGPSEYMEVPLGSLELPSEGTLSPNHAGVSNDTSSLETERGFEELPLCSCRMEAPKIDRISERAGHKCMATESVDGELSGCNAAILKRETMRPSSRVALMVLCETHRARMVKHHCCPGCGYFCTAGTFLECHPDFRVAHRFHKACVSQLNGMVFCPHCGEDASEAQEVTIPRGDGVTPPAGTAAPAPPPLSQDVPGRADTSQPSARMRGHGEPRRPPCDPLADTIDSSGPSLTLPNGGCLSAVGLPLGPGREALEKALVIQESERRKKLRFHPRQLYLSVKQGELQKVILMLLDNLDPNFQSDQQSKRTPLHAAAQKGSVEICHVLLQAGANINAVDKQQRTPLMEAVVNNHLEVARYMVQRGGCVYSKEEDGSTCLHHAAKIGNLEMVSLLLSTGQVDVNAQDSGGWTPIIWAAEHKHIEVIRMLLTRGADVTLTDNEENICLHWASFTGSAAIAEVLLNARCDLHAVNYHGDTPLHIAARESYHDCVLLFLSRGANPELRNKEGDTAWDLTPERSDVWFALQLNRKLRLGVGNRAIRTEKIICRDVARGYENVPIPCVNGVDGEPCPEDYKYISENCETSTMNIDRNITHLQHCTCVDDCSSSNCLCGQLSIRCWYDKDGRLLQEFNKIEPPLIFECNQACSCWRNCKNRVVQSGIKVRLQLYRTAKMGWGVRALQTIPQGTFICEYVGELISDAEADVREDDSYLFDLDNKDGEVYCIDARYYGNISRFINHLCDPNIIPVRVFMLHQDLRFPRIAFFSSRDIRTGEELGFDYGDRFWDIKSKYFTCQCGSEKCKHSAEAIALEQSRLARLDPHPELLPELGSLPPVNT
T1 sequence (Q9H9B1 2-1298 limits assumed): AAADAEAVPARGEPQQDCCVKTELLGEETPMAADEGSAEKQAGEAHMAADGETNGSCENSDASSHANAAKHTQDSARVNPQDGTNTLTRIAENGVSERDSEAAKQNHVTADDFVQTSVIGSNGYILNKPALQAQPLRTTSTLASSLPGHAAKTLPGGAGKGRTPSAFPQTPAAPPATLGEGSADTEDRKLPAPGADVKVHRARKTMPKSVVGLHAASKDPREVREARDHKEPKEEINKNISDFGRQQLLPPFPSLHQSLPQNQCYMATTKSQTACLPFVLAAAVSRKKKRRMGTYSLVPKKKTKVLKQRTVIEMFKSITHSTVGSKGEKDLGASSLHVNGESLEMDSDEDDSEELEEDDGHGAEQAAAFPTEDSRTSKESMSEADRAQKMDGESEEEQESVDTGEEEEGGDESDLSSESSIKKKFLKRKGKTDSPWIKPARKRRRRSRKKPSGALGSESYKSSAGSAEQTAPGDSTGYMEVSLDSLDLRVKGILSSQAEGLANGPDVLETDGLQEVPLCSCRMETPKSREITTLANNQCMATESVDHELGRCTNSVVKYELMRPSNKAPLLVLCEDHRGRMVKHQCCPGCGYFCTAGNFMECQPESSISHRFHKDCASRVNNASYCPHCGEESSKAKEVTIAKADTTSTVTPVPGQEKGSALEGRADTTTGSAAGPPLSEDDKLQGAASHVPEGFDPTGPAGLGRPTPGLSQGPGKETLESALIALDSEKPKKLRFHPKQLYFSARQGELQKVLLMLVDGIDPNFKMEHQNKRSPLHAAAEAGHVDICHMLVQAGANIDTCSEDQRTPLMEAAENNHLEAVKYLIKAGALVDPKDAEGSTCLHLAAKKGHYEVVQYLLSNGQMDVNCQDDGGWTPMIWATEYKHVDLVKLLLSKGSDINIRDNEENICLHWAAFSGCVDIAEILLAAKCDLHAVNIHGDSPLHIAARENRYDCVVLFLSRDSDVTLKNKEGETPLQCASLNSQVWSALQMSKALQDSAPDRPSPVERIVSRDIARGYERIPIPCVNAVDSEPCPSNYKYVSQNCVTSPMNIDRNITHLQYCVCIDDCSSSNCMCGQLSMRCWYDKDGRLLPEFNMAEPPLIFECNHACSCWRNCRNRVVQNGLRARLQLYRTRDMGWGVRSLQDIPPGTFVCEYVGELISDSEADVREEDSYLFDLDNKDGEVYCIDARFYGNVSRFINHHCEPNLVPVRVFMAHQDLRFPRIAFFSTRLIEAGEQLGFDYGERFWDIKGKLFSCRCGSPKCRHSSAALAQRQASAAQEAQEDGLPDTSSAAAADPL

3×MBT domain of L3MBTL1 = assay: Triple SILAC pull-down, 3xMBT/3xMBTD355N ratio (cytoplasmic, nuclear and chromatin fractions of 293T cells); assay type: binding, human; settings: SILAC ratio, pull-down 3xMBT vs 3xMBTD355N; for 3xMBT/D355N UNC Heavy: experiment with UNC0638 in heavy SILAC media; for 3xMBT/D355N UNC Light: experiment with UNC0638 in light SILAC media;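 for all read-outs here: proteins quantified with MaxQuant, requiring at least two unique peptides and quantification in both label directions, normalized to the mean of proteins from a digested loading control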

Relative to UNC0638 UNC Heavy (G9a and GLP): 0.15 log base 2
Relative to UNC0638 UNC Light (G9a and GLP): 0.34 log base 2
Relative to UNC0638 Average (G9a and GLP): 0.24 log base 2
B1: SRSF11 (protein, UniProt Q05519 2-484, looked up)
Serine/arginine-rich splicing …: SNTTVVPSTAGPGPSGGPGGGGGGGGGGGGTEVIQVTNVSPSASSEQMRTLFGFLGKIDELRLFPPDDSPLPVSSRVCFVKFHDPDSAVVAQHLTNTVFVDRALIVVPYAEGVIPDEAKALSLLAPANAVAGLLPGGGLLPTPNPLTQIGAVPLAALGAPTLDPALAALGLPGANLNSQSLAADQLLKLMSTVDPKLNHVAAGLVSPSLKSDTSSKEIEEAMKRVREAQSLISAAIEPDKKEEKRRHSRSRSRSRRRRTPSSSRHRRSRSRSRRRSHSKSRSRRRSKSPRRRRSHSRERGRRSRSTSKTRDKKKEDKEKKRSKTPPKSYSTARRSRSASRERRRRRSRSGTRSPKKPRSPKRKLSRSPSPRRHKKEKKKDKDKERSRDERERSTSKKKKSKDKEKDRERKSESDKDVKQVTRDYDEEEQGYDSEKEKKEEKKPIETGSPKTKECSVEKGTGDSLRESKVNGDDHHEEDMDMSD
3xMBT/D355N UNC Heavy (3×MBT domain of L3MBTL1): 2.45 log base 2
3xMBT/D355N UNC Light (3×MBT domain of L3MBTL1): 2.22 log base 2

Relative to UNC0638 UNC Heavy (G9a and GLP): 0.60 log base 2
Relative to UNC0638 UNC Light (G9a and GLP): −0.11 log base 2
Relative to UNC0638 Average (G9a and GLP): 0.24 log base 2
B2: SEC24A (protein, UniProt O95486 1-1093, looked up)
Protein transport protein …: MSQPGIPASGGAPASLQAQNGAALASGSPYTNGPVQNALLSSQESVSQGYNFQLPGSYPHPIPAKTLNPVSGQSNYGGSQGSGQTLNRPPVASNPVTPSLHSGPAPRMPLPASQNPATTPMPSSSFLPEANLPPPLNWQYNYPSTASQTNHCPRASSQPTVSGNTSLTTNHQYVSSGYPSLQNSFIKSGPSVPPLVNPPLPTTFQPGAPHGPPPAGGPPPVRALTPLTSSYRDVPQPLFNSAVNQEGITSNTNNGSMVVHSSYDEIEGGGLLATPQLTNKNPKMSRSVGYSYPSLPPGYQNTTPPGATGVPPSSLNYPSGPQAFTQTPLGANHLTTSMSGLSLQPEGLRVVNLLQERNMLPSTPLKPPVPNLHEDIQKLNCNPELFRCTLTSIPQTQALLNKAKLPLGLLLHPFKDLVQLPVVTSSTIVRCRSCRTYINPFVSFLDQRRWKCNLCYRVNDVPEEFLYNPLTRVYGEPHRRPEVQNATIEFMAPSEYMLRPPQPPVYLFVFDVSHNAVETGYLNSVCQSLLDNLDLLPGNTRTKIGFITFDSTIHFYGLQESLSQPQMLIVSDIEDVFIPMPENLLVNLNESKELVQDLLKTLPQMFTKTLETQSALGPALQAAFKLMSPTGGRMSVFQTQLPTLGVGALKPREEPNHRSSAKDIHMTPSTDFYKKLALDCSGQQVAVDLFLLSGQYSDLASLGCISRYSAGSVYYYPSYHHQHNPVQVQKLQKELQRYLTRKIGFEAVMRIRCTKGLSIHTFHGNFFVRSTDLLSLPNVNPDAGYAVQMSVEESLTDTQLVSFQSALLYTSSKGERRIRVHTLCLPVVSTLNDVFLGADVQAISGLLANMAVDRSMTASLSDARDALVNAVIDSLSAYRSSVLSNQQPGLMVPFSLRLFPLFVLALLKQKSFQTGTNARLDERIFAMCQVKNQPLVYLMLTTHPSLYRVDNLSDEGALNISDRTIPQPPILQLSVEKLSRDGAFLMDAGSVLMLWVGKNCTQNFLSQVLGVQNYASIPQPMTDLPELDTPESARIIAFISWLREQRPFFPILYVIRDESPMKANFLQNMIEDRTESALSYYEFLLHIQQQVNK
3xMBT/D355N UNC Heavy (3×MBT domain of L3MBTL1): 1.94 log base 2
3xMBT/D355N UNC Light (3×MBT domain of L3MBTL1): 2.29 log base 2
